Experimental data reported in paper PMC13544220, “Glycemic and bodyweight effects of GIPR coding variation reflect differences in surface expression and intrinsic functional impairment” (Science Advances, 2026).
Positions count from the first letter of the chain named. In names and notes the source's numbering stands.

What was measured:
Type in all cases: cell-based, human
[1] = tested on: wild-type and variant SNAP-GIPR; experiment: cADDis cAMP imaging in AD293 cells, ensemble, expression-matched and per decile; details: Fig S3F, cADDis, mean;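 also: Ensemble cells as % of IBMX/FSK response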
How it was run: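 Variants and wild type ran in parallel in transfected AD293 cells carrying cADDis. Single-cell sensor intensity, with nonresponders to IBMX/FSK removed, was paired with SNAP-Surface 647 labeling to allow expression-matched analysis.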

[2] = tested on: wild-type and variant SNAP-GIPR; experiment: Single-concentration GIP cAMP response by HTRF in AD293 cells; details: Fig S3F, HTRF, mean;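 also: ratio to experiment-wide average response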
Procedure: (§1) All variants were tested in parallel on each occasion to control for transfection efficiency differences between experiments.

[3] = tested on: wild-type and variant SNAP-GIPR; experiment: Constitutive and agonist-mediated internalization, reversible SNAP-tag labelling, AD293 cells; parameters: key to Internalisation, Vehicle / Internalisation, +GIP / Internalisation, GIP-only: % internalization: residual fluorescence after Mesna vs pre-Mesna; Surface expression: unit not given here; details: Mean; for +GIP internalisation (100 nM) / GIP-specific internalisation (100 nM) / Constitutive internalisation (100 nM) / Surface expression: Fig 4E; for +GIP internalisation (100 nM) / GIP-specific internalisation (100 nM): GIP 100 nM; for Internalisation, +GIP / Internalisation, GIP-only / Internalisation, Vehicle: Fig S4C, AD293
How it was run: (§2)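 % internalization = residual specific fluorescence after Mesna / pre-Mesna value. Imaging in TNE buffer pH 8.6; second image 10 min post-Mesna.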

[4] = tested on: wild-type and variant SNAP-GIPR; experiment: Surface SNAP-GIPR expression (SNAP-tag labelling) in INS-1 cells; details: Fig 4G; Mean
How it was run: (§3)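 Surface GIPR is quantified from wide-field images after labelling intact transfected cells with a membrane-impermeant SNAP probe at 500 nM for 10 min at room temperature. Specific signal, corrected for nontransfected cells, is normalized to the experiment-wide average or to wild-type.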

[5] = tested on: wild-type and variant SNAP-GIPR; experiment: Single-concentration GIP cAMP response by HTRF in INS-1 cells; details: Fig S3E, mean
Procedure: as §1

[6] = tested on: wild-type and variant SNAP-GIPR; experiment: Surface SNAP-GIPR expression (SNAP-tag labelling) in AD293 cells; details: for AD293 Surface: Fig S3E, mean; for Surface SNAP-GIPR expression: sheet Fig 1C;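 as to all read-outs here: scaled to the experimental average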
How it was run: as §3

[7] = tested on: wild-type and variant SNAP-GIPR; experiment: Constitutive and agonist-mediated internalization, reversible SNAP-tag labelling, INS-1 cells; parameters: key to Internalisation, GIP-only / Internalisation, Vehicle / Internalisation, +GIP: % internalization: residual fluorescence after Mesna vs pre-Mesna; details: Mean; for +GIP internalisation (100 nM) / GIP-specific internalisation (100 nM) / Constitutive internalisation (100 nM): Fig 4G; for +GIP internalisation (100 nM) / GIP-specific internalisation (100 nM): GIP 100 nM; for Internalisation, +GIP / Internalisation, GIP-only / Internalisation, Vehicle: Fig S4C, INS-1
How it was run: as §2

[8] = column repeated, paired with cAMP 100 nM

B1: E463Q (protein, UniProt P48546 22-466, looked up, variant E463Q)
Gastric inhibitory …: RAETGSKGQTAGELYQRWERYRRECQETLAAAEPPSGLACNGSFDMYVCWDYAAPNATARASCPWYLPWHHHVAAGFVLRQCGSDGQWGLWRDHTQCENPEKNEAFLDQRLILERLQVMYTVGYSLSLATLLLALLILSLFRRLHCTRNYIHINLFTSFMLRAAAILSRDRLLPRPGPYLGDQALALWNQALAACRTAQIVTQYCVGANYTWLLVEGVYLHSLLVLVGGSEEGHFRYYLLLGWGAPALFVIPWVIVRYLYENTQCWERNEVKAIWWIIRTPILMTILINFLIFIRILGILLSKLRTRQMRCRDYRLRLARSTLTLVPLLGVHEVVFAPVTEEQARGALRFAKLGFEIFLSSFQGFLVSVLYCFINKEVQSEIRRGWHHCRLRRSLGEEQRQLPERAFRALPSGSGPGEVPTSRGLSSGTLPGPGNEASRELQSYC
AD293 100 pM cADDis [1]: 34.7191
AD293 100 nM cADDis [1]: 36.9
AD293 100 pM HTRF [2]: 1.1295
AD293 100 nM HTRF [2]: 1.311
+GIP internalisation (100 nM) [3]: 0.6258
GIP-specific internalisation (100 nM) [3]: 0.1525
Constitutive internalisation (100 nM) [3]: 0.4733
Surface expression [3]: 1.14
Internalisation, +GIP [3]: 55.318
Internalisation, GIP-only [3]: 13.3425
Internalisation, Vehicle [3]: 41.9756
Surface expression [4]: 1.282
INS-1 cAMP (100 nM) [5]: 1.2
AD293 Surface [6, 8]: 1.191
AD293 Surface ([6]; paired with cAMP 100 pM): 1.191
Surface SNAP-GIPR expression ([6]; replicate 1): 1.219
Surface SNAP-GIPR expression ([6]; replicate 2): 1.021
Surface SNAP-GIPR expression ([6]; replicate 3): 0.7247
Surface SNAP-GIPR expression ([6]; replicate 4): 1.851
Surface SNAP-GIPR expression ([6]; replicate 5): 0.8113
Surface SNAP-GIPR expression ([6]; replicate 6): 1.148
Surface SNAP-GIPR expression ([6]; replicate 7): 0.8161
Surface SNAP-GIPR expression ([6]; replicate 8): 1.203
Surface SNAP-GIPR expression ([6]; replicate 9): 1.004
Surface SNAP-GIPR expression ([6]; replicate 10): 0.9721
Surface SNAP-GIPR expression ([6]; replicate 11): 1.39
Surface SNAP-GIPR expression ([6]; replicate 12): 1.373
Surface SNAP-GIPR expression ([6]; replicate 13): 1.65
Surface SNAP-GIPR expression ([6]; replicate 14): 1.648
Surface SNAP-GIPR expression ([6]; replicate 15): 1.459
Surface SNAP-GIPR expression ([6]; replicate 16): 1.416
Surface SNAP-GIPR expression ([6]; replicate 17): 1.284
Surface SNAP-GIPR expression ([6]; replicate 18): 1.262
Surface SNAP-GIPR expression ([6]; replicate 19): 1.404
Surface SNAP-GIPR expression ([6]; replicate 20): 1.518
Surface SNAP-GIPR expression ([6]; replicate 21): 1.445
Surface SNAP-GIPR expression ([6]; replicate 22): 1.187
Surface SNAP-GIPR expression ([6]; replicate 23): 1.117
Surface SNAP-GIPR expression ([6]; replicate 24): 1.135
Surface SNAP-GIPR expression ([6]; replicate 25): 1.182
Surface SNAP-GIPR expression ([6]; replicate 26): 1.219
Surface SNAP-GIPR expression ([6]; replicate 27): 0.8928
Surface SNAP-GIPR expression ([6]; replicate 28): 1.514
Surface SNAP-GIPR expression ([6]; replicate 29): 0.593
Surface SNAP-GIPR expression ([6]; replicate 30): 0.9046
Surface SNAP-GIPR expression ([6]; replicate 31): 0.8556
Surface SNAP-GIPR expression ([6]; replicate 32): 1.334
Surface SNAP-GIPR expression ([6]; replicate 33): 1.324
Surface SNAP-GIPR expression ([6]; replicate 34): 1.052
Surface SNAP-GIPR expression ([6]; replicate 35): 1.061
Surface SNAP-GIPR expression ([6]; replicate 36): 1.215
Surface SNAP-GIPR expression ([6]; replicate 37): 1.115
Surface SNAP-GIPR expression ([6]; replicate 38): 0.8974
Surface SNAP-GIPR expression ([6]; replicate 39): 1.265
Surface SNAP-GIPR expression ([6]; replicate 40): 1.153
Surface SNAP-GIPR expression ([6]; replicate 41): 1.19
+GIP internalisation (100 nM) [7]: 0.6116
GIP-specific internalisation (100 nM) [7]: 0.1296
Constitutive internalisation (100 nM) [7]: 0.4821
Internalisation, +GIP [7]: 48.5083
Internalisation, GIP-only [7]: 10.305
Internalisation, Vehicle [7]: 38.2033

B2: I403V (protein, UniProt P48546 22-466, looked up, variant I403V)
Gastric inhibitory …: B1 Gastric inhibitory … with I382V, Q442E
AD293 100 pM cADDis [1]: 32.3253
AD293 100 nM cADDis [1]: 38.62
AD293 100 pM HTRF [2]: 1.267
AD293 100 nM HTRF [2]: 1.595
+GIP internalisation (100 nM) [3]: 0.6419
GIP-specific internalisation (100 nM) [3]: 0.176
Constitutive internalisation (100 nM) [3]: 0.4659
Surface expression [3]: 1.133
Internalisation, +GIP [3]: 57.0289
Internalisation, GIP-only [3]: 15.5744
Internalisation, Vehicle [3]: 41.4545
Surface expression [4]: 1.09
INS-1 cAMP (100 nM) [5]: 1.36
AD293 Surface [6, 8]: 1.077
AD293 Surface ([6]; paired with cAMP 100 pM): 1.077
Surface SNAP-GIPR expression ([6]; replicate 1): 1.081
Surface SNAP-GIPR expression ([6]; replicate 2): 1.363
Surface SNAP-GIPR expression ([6]; replicate 3): 0.2202
Surface SNAP-GIPR expression ([6]; replicate 4): 1.549
Surface SNAP-GIPR expression ([6]; replicate 5): 1.258
Surface SNAP-GIPR expression ([6]; replicate 6): 1.264
Surface SNAP-GIPR expression ([6]; replicate 7): 0.985
Surface SNAP-GIPR expression ([6]; replicate 8): 0.9444
Surface SNAP-GIPR expression ([6]; replicate 9): 1.045
Surface SNAP-GIPR expression ([6]; replicate 10): 1.237
Surface SNAP-GIPR expression ([6]; replicate 11): 0.9384
Surface SNAP-GIPR expression ([6]; replicate 12): 0.958
Surface SNAP-GIPR expression ([6]; replicate 13): 1.387
Surface SNAP-GIPR expression ([6]; replicate 14): 1.061
Surface SNAP-GIPR expression ([6]; replicate 15): 1.05
Surface SNAP-GIPR expression ([6]; replicate 16): 0.9753
Surface SNAP-GIPR expression ([6]; replicate 17): 1.072
Surface SNAP-GIPR expression ([6]; replicate 18): 0.9656
Surface SNAP-GIPR expression ([6]; replicate 19): 0.8084
Surface SNAP-GIPR expression ([6]; replicate 20): 1.091
Surface SNAP-GIPR expression ([6]; replicate 21): 0.9955
Surface SNAP-GIPR expression ([6]; replicate 22): 1.089
Surface SNAP-GIPR expression ([6]; replicate 23): 1.06
Surface SNAP-GIPR expression ([6]; replicate 24): 1.048
Surface SNAP-GIPR expression ([6]; replicate 25): 0.9764
Surface SNAP-GIPR expression ([6]; replicate 26): 0.8875
Surface SNAP-GIPR expression ([6]; replicate 27): 0.9058
Surface SNAP-GIPR expression ([6]; replicate 28): 1.123
Surface SNAP-GIPR expression ([6]; replicate 29): 1.103
Surface SNAP-GIPR expression ([6]; replicate 30): 1.39
Surface SNAP-GIPR expression ([6]; replicate 31): 1.166
Surface SNAP-GIPR expression ([6]; replicate 32): 1.223
Surface SNAP-GIPR expression ([6]; replicate 33): 1.12
Surface SNAP-GIPR expression ([6]; replicate 34): 1.156
Surface SNAP-GIPR expression ([6]; replicate 35): 1.076
Surface SNAP-GIPR expression ([6]; replicate 36): 1.273
Surface SNAP-GIPR expression ([6]; replicate 37): 1.139
Surface SNAP-GIPR expression ([6]; replicate 38): 1.049
Surface SNAP-GIPR expression ([6]; replicate 39): 1.042
Surface SNAP-GIPR expression ([6]; replicate 40): 1.006
Surface SNAP-GIPR expression ([6]; replicate 41): 1.094
+GIP internalisation (100 nM) [7]: 0.5388
GIP-specific internalisation (100 nM) [7]: 0.1314
Constitutive internalisation (100 nM) [7]: 0.4074
Internalisation, +GIP [7]: 49.7833
Internalisation, GIP-only [7]: 12.345
Internalisation, Vehicle [7]: 37.4383
